# “And” between values parts separate entries of the source, which are not always exact repeats. Equal values may be shown once. Read-outs that look alike come from different tables or passages of the source.
# Columns and labels:
# Assay in all cases: SPR
# [1] = target: V2 fHbp Thr304 mutant (to Ala) (Neisseria meningitidis)
# [2] = target: V2 fHbp Val311 mutant (to Ala) (Neisseria meningitidis)
# [3] = target: V2 fHbp Val196 mutant (to Ala) (Neisseria meningitidis)
# [4] = target: V2 fHbp Lys264 mutant (to Ala) (Neisseria meningitidis)
# [5] = target: V2 fHbp Ser302 mutant (to Ala) (Neisseria meningitidis)
# [6] = target: V2 fHbp Lys268 mutant (to Ala) (Neisseria meningitidis)
# [7] = target: V2 fHbp Glu262 mutant (to Ala) (Neisseria meningitidis)
# [8] = target: V2 fHbp Gln191 mutant (to Ala) (Neisseria meningitidis)
# [9] = target: V2 fHbp His203 mutant (to Ala) (Neisseria meningitidis)
# [10] = target: V2 fHbp (V2.p21), wild type (Neisseria meningitidis) (UniProt E6MV22)
# [11] = target: V3 fHbp (V3.p28), wild type (Neisseria meningitidis) (UniProt E6MV22)
# [12] = target: V2 fHbp Leu199 mutant (to Ala) (Neisseria meningitidis)
# [13] = target: V1 fHbp (V1.p1), wild type (Neisseria meningitidis) (UniProt Q9JXV4)
# [14] = target: V3 fHbp Pro125 mutant (to Ala) (Neisseria meningitidis)
# [15] = target: V2 fHbp Thr304 mutant (to Ala) (Neisseria meningitidis); remark: listed apart in the source
# [16] = target: V2 fHbp Val311 mutant (to Ala) (Neisseria meningitidis); remark: listed apart in the source
# [17] = target: V1 fHbp Gln193-Ala (Neisseria meningitidis)
# [18] = target: V1 fHbp Arg195-Ala (Neisseria meningitidis)
# [19] = target: V1 fHbp Phe194-Ala (Neisseria meningitidis)
# [20] = target: V2 fHbp Val196 mutant (to Ala) (Neisseria meningitidis); remark: listed apart in the source
# [21] = target: V1 fHbp Lys191-Ala (Neisseria meningitidis)
# [22] = target: V2 fHbp Lys264 mutant (to Ala) (Neisseria meningitidis); remark: listed apart in the source
# [23] = target: V2 fHbp Ser302 mutant (to Ala) (Neisseria meningitidis); remark: listed apart in the source
# [24] = target: V1 fHbp His203-Ala (Neisseria meningitidis)
# [25] = target: V2 fHbp Lys268 mutant (to Ala) (Neisseria meningitidis); remark: listed apart in the source
# [26] = target: V2 fHbp Glu262 mutant (to Ala) (Neisseria meningitidis); remark: listed apart in the source
# [27] = target: V1 fHbp Ile196-Ala (Neisseria meningitidis)
# [28] = target: V2 fHbp Gln191 mutant (to Ala) (Neisseria meningitidis); remark: listed apart in the source
# [29] = target: V2 fHbp His203 mutant (to Ala) (Neisseria meningitidis); remark: listed apart in the source
# [30] = target: V3 fHbp (V3.p28), wild type (Neisseria meningitidis) (UniProt E6MV22); remark: listed apart in the source
# [31] = target: V2 fHbp Leu199 mutant (to Ala) (Neisseria meningitidis); remark: listed apart in the source
# [32] = target: V1 fHbp (V1.p1), wild type (Neisseria meningitidis) (UniProt Q9JXV4); remark: listed apart in the source
substance,measurement,setting,value
human factor H CCP 6 and 7 (fH67) (domain or fragment),Kd,[1],8.2 nM
same,Kd,[2],7.45 nM
same,Kd,[3],23 nM
same,Kd,[4],9.05 nM
same,Kd,[5],4.05 nM
same,Kd,[6],2.25 nM
same,Kd,[7],5.3 nM
same,Kd,[8],2.6 nM
same,Kd,[9],2.65 nM
same,Kd,[10],2.15 nM and 1.85 nM
same,Kd,[11],2.95 nM
same,Kd,[12],15.5 nM
same,Kd,[13],2.85 nM
same,Kd,[14],3.3 nM
same,Kd,[15],7.9 nM and 8.5 nM
same,Kd,[16],7 nM and 7.9 nM
same,Kd,[17],5.3 nM and 4.2 nM
same,Kd,[18],360 nM and 75 nM
same,Kd,[19],6 nM and 6.3 nM
same,Kd,[20],32 nM and 14 nM
same,Kd,[21],4.5 nM and 3.8 nM
same,Kd,[22],9.5 nM and 8.6 nM
same,Kd,[23],3.7 nM and 4.4 nM
same,Kd,[24],1.4 nM and 2 nM
same,Kd,[25],2.3 nM and 2.2 nM
same,Kd,[26],5.6 nM and 5 nM
same,Kd,[27],1.4 nM and 1.6 nM
same,Kd,[28],2.7 nM and 2.5 nM
same,Kd,[29],2.5 nM and 2.8 nM
same,Kd,[30],2.8 nM and 3 nM and 2.9 nM
same,Kd,[31],16 nM and 15 nM
same,Kd,[32],2.7 nM and 3.1 nM and 2.6 nM

# From article PMC3486911 (PLoS Pathogens, 2012)
